Laboratory results taken from publication PMC4335073.

Target: Ross River virus (RRV), WT T48 strain, UV-inactivated virus coated on plates (Ross River virus, strain T48)

Substance: recombinant human PTX3 N-terminal fragment (domain or fragment)
- RRV entry into HEK 293T cells at 0 and 6 hpi (flow cytometry with anti-alphavirus antibody), RRV pre-incubated with the PTX3 fragment, compared with full-length rhPTX3 (% less efficient than full-length rhPTX3): 30
